Measured values: patent publication US10465177B2, “Maltooligosyl trehalose trehalohydrolase (MTHase) mutant and application thereof” (Jiangnan University, priority 2018, dated 2019)

Assays:
[1] = substrate: OC[C@H]1O[C@H](O[C@H]2[C@H](O)[C@@H](O)[C@@H](O[C@H]3[C@H](O)[C@@H](O)[C@@H](O[C@H]4[C@H](O)[C@@H](O)[C@@H](O[C@H]5[C@H](O)[C@@H](O)[C@@H](O[C@H]6[C@H](O)[C@@H](O)C(O)O[C@@H]6CO)O[C@@H]5CO)O[C@@H]4CO)O[C@@H]3CO)O[C@@H]2CO)[C@H](O)[C@@H](O)[C@@H]1O; test: purified protein, by the assay type; conditions: other: wild type enzyme, maltohexose substrate, 60° C.
[2] = substrate: OC[C@H]1O[C@H](O[C@H]2[C@H](O)[C@@H](O)[C@@H](O[C@H]3[C@H](O)[C@@H](O)[C@@H](O[C@H]4[C@H](O)[C@@H](O)[C@@H](O[C@H]5[C@H](O)[C@@H](O)[C@@H](O[C@H]6[C@H](O)[C@@H](O)C(O)O[C@@H]6CO)O[C@@H]5CO)O[C@@H]4CO)O[C@@H]3CO)O[C@@H]2CO)[C@H](O)[C@@H](O)[C@@H]1O; test: purified protein, by the assay type; type: biochemical, Sulfolobus acidocaldarius; conditions: other: mutant M140L/L202P/L218D/Y323G/F338S/I404T, maltohexose substrate, 60° C.

Row | Protein | Km [1] [mM] | Km [2] [mM]
1 | maltooligosyl trehalose trehalohydrolase (MTHase) derived from Sulfolobus acidocaldarius, wild type (WT), SEQ ID NO.2 (Sulfolobus acidocaldarius) (protein) MFSFGGNIEKNKGIFKLWAPYVNSVKLKLSKKLIPMEKNDEGFFEVEIDDIEENLTYSYIIEDKREIPDPASRYQPLGVHDKSQLIRTDYQILDLGKVKIEDLIIYELHVGTFSQEGNFKGVIEKLDYLKDLGITGIELMPVAQFPGNRDWGYDGVFLYAVQNTYGGPWELAKLVNEAHKRGIAVILDVVYNHIGPEGNYLLGLGPYFSDRYKTPWGLTFNFDDRGCDQVRKFILENVEYWFKTFKIDGLRLDAVHAIFDNSPKHILQEIAEKAHQLGKFVIAESDLNDPKIVKDDCGYKIDAQWVDDFHHAVHAFITKEKDYYYQDFGRIEDIEKTFKDVFVYDGKYSRYRGRTHGAPVGDLPPRKFVVFIQNHDQVGNRGNGERLSILTDKTTYLMAATLYILSPYIPLIFMGEEYYETNPFFFFSDFSDPVLIKGVREGRLKENNQMIDPQSEEAFLKSKLSWKIDEEVLDYYKQLINIRKRYNNCKRVKEVRREGNCITLIMEKIGIIASFDDIVINSKITGNLLIGIGFPKKLKKDELIKVNRGVGVYQLE | 3.89 ± 0.34 | –
2 | maltooligosyl trehalose trehalohydrolase (MTHase) derived from Sulfolobus acidocaldarius (parent SEQ ID NO.2), mutant M140L/L202P/L218D/Y323G/F338S/I404T … (protein, sextuple site-directed mutant of the 556-aa parent) MFSFGGNIEKNKGIFKLWAPYVNSVKLKLSKKLIPMEKNDEGFFEVEIDDIEENLTYSYIIEDKREIPDPASRYQPLGVHDKSQLIRTDYQILDLGKVKIEDLIIYELHVGTFSQEGNFKGVIEKLDYLKDLGITGIELLPVAQFPGNRDWGYDGVFLYAVQNTYGGPWELAKLVNEAHKRGIAVILDVVYNHIGPEGNYLPGLGPYFSDRYKTPWGDTFNFDDRGCDQVRKFILENVEYWFKTFKIDGLRLDAVHAIFDNSPKHILQEIAEKAHQLGKFVIAESDLNDPKIVKDDCGYKIDAQWVDDFHHAVHAFITKEKDGYYQDFGRIEDIEKTSKDVFVYDGKYSRYRGRTHGAPVGDLPPRKFVVFIQNHDQVGNRGNGERLSILTDKTTYLMAATLYTLSPYIPLIFMGEEYYETNPFFFFSDFSDPVLIKGVREGRLKENNQMIDPQSEEAFLKSKLSWKIDEEVLDYYKQLINIRKRYNNCKRVKEVRREGNCITLIMEKIGIIASFDDIVINSKITGNLLIGIGFPKKLKKDELIKVNRGVGVYQLE | – | 3.4 ± 0.94
